By Kd is commonly meant a measure of binding affinity in units of concentration. High values mean weaker binding, low ones tighter binding.

Here are results for four molecules from patent US20200325476 (published 2020).

The target in data set [1] is T1, alpha-synuclein (monomer) (UniProt P37840 P37840:1-140). Briefly: MST; 1x PBS, 0.05% Tween-20, 25 C; 50 nM aptamer.
The target in data set [2] is T1, alpha-synuclein (monomer). Briefly: footprint; DNase I; apparent Kd estimated from three bands but value not given in text; DPBS, 37 C.
Data set [3] has as its target T1, alpha-synuclein (monomer). Put plainly: footprint; DNase I; positive control; apparent Kd estimated from three bands but value not given in text; DPBS, 37 C.

Numbering of substitutions follows the chain as printed.

B1: a-syn-3 (GdJUhe) (ssDNA)
DNA: ATAGTCCCATCATTCATTGTATGAGATGGGGTGGTGACGTCAGCATGGAGATATTAGCAAGTGTCA
As for B1, in data set [1], the affinity, expressed as Kd, was 94.2 nM.

B2: a-syn-1 (1LBwAAjJ) (ssDNA)
DNA: ATAGTCCCATCATTCATTGTAAGGAAACGCTACGGGGTGGGTACGGCAAGATATTAGCAAGTGTCA
As for B2, the binding result in data set [2] was “binds”.

B3: a-syn-2 (1LBiGJFJC) (ssDNA)
DNA: ATAGTCCCATCATTCATTGTATGGTACGGCGCGGTGGCGGGTGCGGGGAGATATTAGCAAGTGTCA
For B3, binding in data set [1] was characterised by a dissociation constant (Kd) of 286 nM.

B4: M5-15 (ssDNA)
DNA: B3 DNA with G46T
For B4, the binding result in data set [3] is listed as “binds”.
